Measurements from US20180155451A1 (published 2018).
Residue numbers refer to the chain shown, from its start.

B1: H240-FA030/H240-FB084/L73-k0 (antibody, human IgG1, kappa)
heavy 1: QDQLVQSGAEVKKPGASVKVSCKASGFNIKDTYIQWVRQAPGQGLEWMGRIDPLRKQTKYREKFEGRVTITADTSTNTAYMELSSLRSEDTAVYYCVRSGREFDYWGQGTLVTVSSASTKGPSVFPLAPSSKSTSGGTAALGCLVKDYFPEPVTVSWNSGALTSGVHTFPAVLQSSGLYSLSSVVTVPSSSLGTKTYTCNVNHKPSNTKVDKKVEPKSCDKTHTCPPCPAPEYYWGPSVFLFPPKPKDTLMISRTPEVTCVVVDVSDEEPKVKFNWYVDGVEVHNAKTKPREEQYNATYRVVSVLTVLHQDWLNGKEYKCKVSNKALPAPIEKTISKAKGQPREPQVYTLPPSRKEMTKNQVSLTCLVKGFYPSDIAVEWESNGQPENNYKTTPPVLDSDGSFFLYSKLTVDKSRWQQGNVFSCSVMHEALHNRYTQKSLSLSP
heavy 2: QDQLVQSGAEVKKPGASVKVSCKASGFNIKDTYIQWVRQAPGQGLEWMGRIDPLRKQTKYREKFEGRVTITADTSTNTAYMELSSLRSEDTAVYYCVRSGREFDYWGQGTLVTVSSASTKGPSVFPLAPSSKSTSESTAALGCLVEDYFPEPVTVSWNSGALTSGVHTFPAVLQSSGLYSLSSVVTVPSSNFGTQTYTCNVDHKPSNTKVDKTVEPKSCDKTHTCPPCPAPELLGGPSVFLFPPKPKDTLMISRTPEVTCVVVDVSHEEPEVQFNWYVDGVEVHNAETKPREEQYNSTYRVVSVLTVLHQDWLNGKEYKCKVSNDALPMPIEETISKAKGQPREPQVYTLPPSREEMTKNQVSLTCLVKGFYPSDIAVEWESEGQPENNYKTTPPVLDSDGSFFLYSKLTVDKSRWQQGNVFSCSVMHEALHNHYTQESLSLSP
light: DIQMTQSPSSLSASVGDRVTITCRASQDIHKYIAWYQQKPGQAPRLLIQYTSTLQPGVPSRFSGSGSGTDYTFTISSLQPEDIATYYCLQYEQLRTFGGGTKVEIKRTVAAPSVFIFPPSDEQLKSGTASVVCLLNNFYPREAKVQWKVDNALQSGNSQESVTEQDSKDSTYSLSSTLTLSKADYEKHKVYACEVTHQGLSSPVTKSFNRGEC
notes: Heterodimerized anti-EREG IgG1 antibody; A chain altered from H240-AK072, B chain altered from H240-BH076
B2: H240-FA024/H240-FB084/L73-k0 (antibody, human IgG1, kappa)
heavy 1: B1 heavy 1 with M357K
heavy 2: B1 heavy 2
light: B1 light
notes: as for B1
B3: H240-FA024/H240-FB065/L73-k0 (antibody, human IgG1, kappa)
heavy 1: B1 heavy 1 with M357K
heavy 2: B1 heavy 2 with E146K, E383N
light: B1 light
notes: as for B1
B4: H240-FA030/H240-FB083/L73-k0 (antibody, human IgG1, kappa)
heavy 1: B1 heavy 1
heavy 2: B1 heavy 2 with E383N
light: B1 light
notes: as for B1
B5: H240-FA030/H240-FB065/L73-k0 (antibody, human IgG1, kappa)
heavy 1: B1 heavy 1
heavy 2: B1 heavy 2 with E146K, E383N
light: B1 light
notes: as for B1
B6: H240-FA030/H240-FB064/L73-k0 (antibody, human IgG1, kappa)
heavy 1: B1 heavy 1
heavy 2: B1 heavy 2 with E146K, E287K, E383N
light: B1 light
notes: as for B1
B7: H240-FA024/H240-FB082/L73-k0 (antibody, human IgG1, kappa)
heavy 1: B1 heavy 1 with M357K
heavy 2: B1 heavy 2 with E136G, S137E, N191S, F192L, T198I, D202N, T213K
light: B1 light
notes: as for B1
B8: H240-FA030/H240-FB082/L73-k0 (antibody, human IgG1, kappa)
heavy 1: B1 heavy 1
heavy 2: B1 heavy 2 with E136G, S137E, N191S, F192L, T198I, D202N, T213K
light: B1 light
notes: as for B1
B9: H240-FA009/H240-FB001/L73-k0 (antibody, human IgG1, kappa)
heavy 1: B1 heavy 1 with T198I, K271E
heavy 2: B1 heavy 2 with E136G, S137G, E146K, N191S, F192L, T198I, D202N, T213K, E287K, E383N
light: B1 light
notes: as for B1
B10: H240-FA009/H240-FB020/L73-k0 (antibody, human IgG1, kappa)
heavy 1: B1 heavy 1 with T198I, K271E
heavy 2: B1 heavy 2 with E136G, S137G, N191S, F192L, T198I, D202N, T213K, E287K, E383N
light: B1 light
notes: as for B1
B11: H240-FA009/H240-FB017/L73-k0 (antibody, human IgG1, kappa)
heavy 1: B1 heavy 1 with T198I, K271E
heavy 2: B1 heavy 2 with S137G, E146K, N191S, F192L, T198I, T213K, E287K, E383N
light: B1 light
notes: as for B1
B12: H240-FA009/H240-FB016/L73-k0 (antibody, human IgG1, kappa)
heavy 1: B1 heavy 1 with T198I, K271E
heavy 2: B1 heavy 2 with E136G, S137G, E146K, N191S, F192L, T198I, T213K, E287K, E383N
light: B1 light
notes: as for B1
B13: H240-FA009/H240-FB015/L73-k0 (antibody, human IgG1, kappa)
heavy 1: B1 heavy 1 with T198I, K271E
heavy 2: B1 heavy 2 with S137G, E146K, N191S, F192L, T198I, D202N, T213K, E287K, E383N
light: B1 light
notes: as for B1

These binders were tested against T1, FcγRIa extracellular domain with C-terminal His tag (human, UniProt P12314 16-292) (assay: SPR (Biacore), antibody captured on chip, soluble FcgR as analyte; experiment 1).
T1 construct: extracellular domain; also called FcgRI; FcgRIa; not shown: His tag at the C terminus
Method: (§1) Antibodies of interest were analyzed for the interaction to FcgR according to the method described in Reference Example 8.
(§2) Analysis of interaction between obj ective antibody and the FcγR was carried out using Biacore T100 (GE Healthcare), Biacore T200, Biacore A100, and Biacore 4000. HBS-EP+ (GE Healthcare) was used as the running buffer, and the measurement temperature was set to 25° C. Chips produced by immobilizing the antigen peptide by the amine coupling method to a Series S sensor Chip CM5 (GE Healthcare), chips produced by allowing preliminarily biotinylated antigen peptides to interact with and immobilize onto a Series S Sensor Chip SA (certified) (GE Healthcare), chips produced by immobilizing Protein L (ACTIGEN, BioVision) to Series S Sencor Chip CM5 (GE Healthcare), or chips produced by immobilizing Protein A/G (Thermo Scientific) to Series S Sencor Chip CM5 (GE Healthcare) were used. Antibodies of interest were captured onto these chips, and allowed to interact to each FcγR diluted with running buffer. To regenerate and repeatedly use the chip, the antibodies captured onto the chip were washed off by reacting 10 mM glycine-HCl, pH 1.5.

T1 sequence (P12314 16-292): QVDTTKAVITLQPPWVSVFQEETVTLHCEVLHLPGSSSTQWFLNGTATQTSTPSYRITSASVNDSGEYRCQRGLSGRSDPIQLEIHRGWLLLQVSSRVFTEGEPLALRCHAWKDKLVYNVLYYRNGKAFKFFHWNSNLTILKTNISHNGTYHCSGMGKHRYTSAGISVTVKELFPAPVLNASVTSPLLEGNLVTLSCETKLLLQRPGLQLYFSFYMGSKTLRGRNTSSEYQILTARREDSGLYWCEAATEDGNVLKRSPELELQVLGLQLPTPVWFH

Binder	Kd [nM]
B1	0.12
B2	0.095
B3	0.15
B4	0.081
B5	0.1
B6	0.057
B7	0.13
B8	0.092

What follows are binders tested against T2, FcγRIIa R type extracellular domain with C-terminal His tag (human, UniProt P12318 34-217) in the same assay as above.
T2 construct: extracellular domain; also called FcgRIIa R; FcgRIIaR; not shown: His tag at the C terminus
T2 sequence (looked up): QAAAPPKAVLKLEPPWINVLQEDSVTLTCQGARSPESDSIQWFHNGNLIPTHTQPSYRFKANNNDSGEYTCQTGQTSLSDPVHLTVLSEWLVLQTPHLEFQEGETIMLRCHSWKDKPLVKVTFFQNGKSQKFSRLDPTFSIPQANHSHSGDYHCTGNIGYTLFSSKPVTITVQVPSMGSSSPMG
Method: as §1, §2

Binder	Kd [nM]
B1	270
B2	250
B3	300
B4	280
B5	340
B6	290
B7	240
B8	300

These binders were tested against T3, FcγRIIa H type extracellular domain with C-terminal His tag (human, UniProt P12318 34-217) in the same assay as above.
T3 construct: extracellular domain; also called FcgRIIa H; FcgRIIaH; not shown: His tag at the C terminus
T3 sequence (looked up): T2 sequence (looked up) with R134H
Method: as §1, §2

Binder	Kd [nM]
B1	88
B2	79
B3	95
B4	82
B5	99
B6	96
B7	80
B8	88

The binders below were run against T4, FcγRIIb extracellular domain with C-terminal His tag (human, UniProt P31994 43-217) in the same assay as above.
T4 construct: extracellular domain; also called FcgRIIb; 2b; not shown: His tag at the C terminus
T4 sequence (looked up): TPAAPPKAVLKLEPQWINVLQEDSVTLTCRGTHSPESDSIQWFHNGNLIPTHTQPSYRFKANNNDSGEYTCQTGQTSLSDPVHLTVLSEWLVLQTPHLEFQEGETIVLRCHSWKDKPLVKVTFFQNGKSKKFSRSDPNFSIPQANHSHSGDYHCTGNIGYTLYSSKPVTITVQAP
Method: as §1, §2

Binder	Kd [nM]
B1	2500
B2	1500
B3	1700
B4	1500
B5	2400
B6	1800
B7	1500
B8	1900

Each binder was assayed against T5, FcγRIIIa F type extracellular domain with C-terminal His tag (human, UniProt P08637 17-208) in the same assay as above.
T5 construct: extracellular domain; also called FcgRIIIa F; FcgRIIIaF; not shown: His tag at the C terminus
Method: as §1, §2

T5 sequence (P08637 17-208): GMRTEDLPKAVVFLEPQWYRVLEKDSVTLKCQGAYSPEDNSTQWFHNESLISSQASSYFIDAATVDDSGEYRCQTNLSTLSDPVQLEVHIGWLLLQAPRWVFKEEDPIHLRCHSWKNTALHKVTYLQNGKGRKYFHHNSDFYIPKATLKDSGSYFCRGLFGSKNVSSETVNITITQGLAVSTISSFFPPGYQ

Binder	Kd [nM]
B1	4.2
B2	4.6
B3	5
B4	3.9
B5	4.6
B6	5.3
B7	4.6
B8	4.3

Each binder was assayed against T6, FcγRIIIa V type extracellular domain with C-terminal His tag (human, UniProt P08637 17-208) in the same assay as above.
T6 construct: extracellular domain; also called FcgRIIIa V; FcgRIIIaV; not shown: His tag at the C terminus
Method: as §1, §2

T6 sequence (P08637 17-208 F176V): as the sequence (P08637 17-208) above, with F160V counted along it

Binder	Kd [nM]
B1	1.3
B2	1.2
B3	1.4
B4	1.2
B5	1.1
B6	1.5
B7	1.3
B8	1.3

The binders below were run against T1, FcγRIa extracellular domain with … (assay: SPR (Biacore), antibody captured on chip, soluble FcgR as analyte; experiment 2).
Method: as §1, §2

Binder	Kd [nM]
B9	0.17
B10	0.12
B11	0.11
B12	0.13
B13	0.093

These binders were tested against T2, FcγRIIa R type extracellular domain … in the same assay as above.
Method: as §1, §2

Binder	Kd [nM]
B9	250
B10	250
B11	230
B12	250
B13	330

What follows are binders tested against T3, FcγRIIa H type extracellular domain … in the same assay as above.
Method: as §1, §2

Binder	Kd [nM]
B9	69
B10	64
B11	61
B12	70
B13	84

Each binder was assayed against T4, FcγRIIb extracellular domain with … in the same assay as above.
Method: as §1, §2

Binder	Kd [nM]
B9	1300
B10	1400
B11	1400
B12	1400
B13	1800

Each binder was assayed against T5, FcγRIIIa F type extracellular domain … in the same assay as above.
Method: as §1, §2

Binder	Kd [nM]
B9	4.3
B10	3.9
B11	3
B12	4.4
B13	4.2

These binders were tested against T6, FcγRIIIa V type extracellular domain … in the same assay as above.
Method: as §1, §2

Binder	Kd [nM]
B9	1.1
B10	1.1
B11	0.84
B12	1
B13	1.3
